Measured values from the DeepSol protein solubility set.

Experiment: soluble on expression in E. coli; label from the status in PepcDB or PDB records

Sequence	soluble on expression in E. coli
ARSTNTFNYATYHTLDEIYDFMDLLVAQHPELVSKLQIGRSYEGRPIYVLKFSTGGSNRPAIWIDLGIHSREWITQATGVWFAKKFTENYGQNPSFTAILDSMDIFLEIVTNPNGFAFTHSENRLWRKTRSVTSSSLCVGVDANRNWDAGFGKAGASSSPCSETYHGKYANSEVEVKSIVDFVKNHGNFKAFLSIHSYSQLLLYPYGYTTQSIPDKTELNQVAKSAVAALKSLYGTSYKYGSIITTIYQASGGSIDWSYNQGIKYSFTFELRDTGRYGFLLPASQIIPTAQETWLGVLTIMEHTVNN	soluble
MRDIQQVLERWGAWVANNHEDVTWSSIAAGFKGLIPSKVKSRPQCCDDDAMVICGCMARLNRNNNDLHDLLVDYYVFGMTFMTLARKHGCSDGYIGKKLQKAEGVVEGMLMMLGVRLEMDKYIEHP	not soluble
MGHHHHHHSHNCHWTYLKQNRKMAANSSGQGFQNKNRVAILAELDKEKRKLLMQNQSSTNHPGARY	not soluble
MAMIGLVGKPNVGKSTMFNALTEKPAEIGNYPFTTIQPNKGIAYITSPCPCKELGVKCNPRNSKCIDGIRHIPVEVIDVAGLVPGAHEGRGMGNKFLDDLRQADAFILVVDASGKTDAEGNPTENYDPVEDVKFLLNEIDMWIYSILTKNWDKLARRAQQEKNIVKALKDQLSGLNIDEDDIKMAIRDMDESPIKWTEEDLLNLAKKLRKISKPMIIAANKADHPDAEKNIERLKKEFKDYIVIPTSAEIELALKRAEKAGIIKRKENDFEIIDESKVNEQMRRAFDYIKDFLKKYGGTGVQECINKAYFDLLDMIVVYPVEDENKFSDKQGNVLPDAFLVKKGSTARDLAYKVHTELGEKFIYAIDAKKKIRVGADYELKHNDIIKIVSAAK	soluble
MGSLRLLADIQGEDLESLYGYAKQLFDGGEIAAARNVYQLLSTLDHWNFDYLLALGLCHQRLGAHNEAVVCFGRAGLIKVDDPRAAFYAGISYRLDGNAEYASKAFKAAINWCGEQIDYQAIKASAVDMLALQQEEVPLEHHHHHH	not soluble
SSSSDESEVKEAPKEEAKADKPKVSAPAQRGSDFANIGPMYPLDPFTLNLLSDSGSRYVKCTIELEQNSELLKPELDKKVPVIRDIIIRTLTAKTFEEVSTQKGKERLKDELVGKINEILTDGFIKNVYFTDFVVS	not soluble
MTTTTLTVPFRFDVVGSLLRPASLKKAHEQLAAGTITRDQELEIQHTEIKRVVAEQVKLGLKAVTDGEFSRSWWHLDFLWGLTGVGKYDYHQSYKFKGDHTRTDNAELIGKVAYNPDHPFFAAFEYLQSIVPAGVLAKQTIPSPTMLFRDNRSDNWTKFYDSWDAYLNDLAQAYHDTIQHFYDLGCRYIQLDDTTWAFLISKLNDPEADHAAYTKWATDAVTVINAALADLPSDLTVTTHICRGNFKSTYLFSGSYDVVAPYLGQLNYDGLFLEYDNERAGGFEALDQIWNHDDHKRIVLGLVTSKFPELEKTTVIKERVQAATTKVPLRNLALSTQCGFASTEEGNQLTEAQQWAKLALVIGTAKEVWSEALEHHHHHH	not soluble
MPKTEDKYLPLMSKEKIEKALAFHKSFPQYSETPLAELNHMAAYLGLNDFFVKDESYRFGLNAFKVLGGSFAMANYIAEKLKKDVSELTYDELTSDQLRSAFGQATFFTATDGNHGRGVAWAANKLGQKSVVLMPKGSTQTRKENIEKEGATVTIEEVNYDECVRMANKMAEETENGVMVQDTAWDGYEKIPTWIMQGYGTMALEASQQLRKFGSERPSHVFVQAGVGSLAGAVIGYFANAFPENPPIMVVVEAQAADCLYQSAIKKDGEIRFVDGDLQTIMAGLACGEPNTISFDILKNHTSFFVSAPDWVSEKGMRMLGAPLKGDPQVVSGESGAVAMGLVATVMQDPDYQELHEALQLDETSNVLMFSTEGDTDPDNYKKILWR	not soluble
MGHHHHHHSHMASVSSATFSGHGARSLLQFLRLVGQLKRVPRTGWVYRNVQRPESVSDHMYRMAVMAMVIKDDRLNKDRKL	not soluble
MTKKYLKVDVVSPLGSVFKGEADMVSLRGSAGEMGIAYGHTELLSTLPAGVVNVRKDQHTDVLYVSGGIVEVTPTRVTIMVDDMERAENLNQAEAEKARARAKEVLKNPDASKLDIEAANKRLKEADARLKALNSSNGLYYSKDD	not soluble
MNVGILGIGRYVPEKVVTNHDLEKIMDTSDEWIRTRTGIAERRIADDTIDTSYMAVEASKKALEDAGISGEDIDLILVATVTPDRAFPAVACVIQEAIGAKHAAAMDLSAACAGFMYGMITAQQFIQTGTYKNVLVVGSDKLSKIVDWNDRNTAVLFGDGAGAIVMGAVSEGKGVLSFELGADGSGGKHLYQDEYVMMNGREVFKFAVRQLGDSCLRVLDKAGLTKEDVDFLVPHQANIRIMESARERLNLPQEKMSMTIEKFGNTSASSIPIAMVEELQNGRIQDGDLIILVGFGGGLTWGAVALRWGK	not soluble
MVSNSSITFKEFVDYWFEAYASTAVKPSTQKRYRQLLKPALRAIGNKPLNKVKPLDIQNIYIALAGTQSNCTILKLHRLLHEIFKHAQMWEYISDNPVKKVVPPTPEKKVFDLEHHHHHH	not soluble
MSLSKTSKMKKTEISKKPSELGISNKTQDDLSKYSDTVNIALFGVDRRLKTDVSRSDSIMILTMDPAHKKLKLSSIMRDTYVNVDGHGMTKITHAYAYGGPQLAIKTINENFKLNIKDYVTVDFYALEKIIDKLNGVEINVQSDEVGYLNGYIDEVSKYEKVTPNHVTSSGKQLLDGRQAVAYSRIRYTAGGDFVRTERQRTVLMAVFNKLQAQGKSNMVSMFDEILPYTETNMGSIDIAKYGTKFISSDISNIDQERFPLDGYCSGVTVDNVWYLKTDLNVTSDQMRKYIFEDVKPSPKASLVNIPEKEGHHHHHH	soluble
MLGIHRYDENLPPDELARDYLERTLFVMERVKFHTLAHLDYPARYAKADFKANRDLIEKILVFLVKNEKALEINTAGLFKHGKPNPDYWIVEMYYDLGGRVVTIGSDAHESQHIGRG	soluble
AAKGNMQCNIFVPAGTSKGKTTQTRLYGANCIEVEGTREDVALAAIESSVTHGSHYVGHNWHPLFIEGVKSIAYEIWEQCGYKAPDNFVVPAGNGSLLAGAYIGFSELLKGGEISKLPRLFGIQSESIQPFVQTFNNKEINITSEDTIAEGIKIKRSSRMNEIVQFVKETNGNFISVNEQQIQSALKEMGAQGYFIEPTSATAFAGIAQLIKTQEIKPDELTVGVVTGNGLKATNSIEHLINDMRG	not soluble
MGSDKIHHHHHHNDDPGKDPDVVTYDFKNLPADSGAKPTEDQMSAVVATFVDEVALPTYKDMLTKMTAYKNAVDKFIASGSKNDLADACDAWRAVRVPWEQSEAFLFGVADLAQLDPSLDSWPLDKNGIEEIIATGEFSKISGAVDEDAEDGPQNLRGFHTAEKMLFLDGEPRDLETSPFAKNELEYLKLVSERMLSDTQDLYNGWLKGLGTSDVPSSYAEAMKKHDGSAYSIGNVYQAIELMLNGNNGMAGISNEVGSAKITDPVTAWNGSNKDATDPNNPGVLAVESWYSWNSLDDYKNNIVSIKNAYFGGRDLDEESASESSLHALTKMINPTLDSLMVVQIDKTIDAINAIGYPFRNNLGDTEHINTATEACADLTTGLGVVKSKFTN	not soluble
MSLGTRAPSFTPERSVEISGGEDGYFQARGTISGPLGETLAGRLSAYRTRDDGYVKNLHDGNTLNGGARQGFRGQLLFKPNDDFSLRWIGDYNEEDSDNGVLTLFSSGPTVNGVNRYEQRAAAAGATLVDGHRRKVNFDSDQQVTVFQGGTSVEANWKLANDFTLTSISAYRWWDFTPRNDDGLDVPAAYNAGVSVRDKQWSQEIRLASPSGGFFDYVLGAYYFGQDLDNKSFTDYGPRADIWNGTPAGALSDVSTRGRGHIDTDSYALFAQGTWHLTERLDLTAGVRGTYEEKSAWVEREGHHHHHH	soluble
